The supplement of paper PMC11246515
± gives the standard deviation of the averaged measurements.

Experiment: total protein half-life in vivo (active degradation + dilution); higher = more stable protein
[1] = E. coli NCM3722 delta-clpP delta-lon delta-hslV, growth: N-lim chemostat, doubling time 6 h
[2] = E. coli NCM3722 delta-clpP, growth: N-lim chemostat, doubling time 6 h
[3] = E. coli NCM3722 delta-hslV, growth: N-lim chemostat, doubling time 6 h
[4] = E. coli NCM3722 delta-lon, growth: N-lim chemostat, doubling time 6 h
[5] = E. coli NCM3722 delta-smpB, growth: N-lim chemostat, doubling time 6 h
[6] = wild type E. coli NCM3722, growth: C-lim chemostat, doubling time 3 h
[7] = wild type E. coli NCM3722, growth: C-lim chemostat, doubling time 6 h
[8] = wild type E. coli NCM3722, growth: C-lim chemostat, doubling time 12 h
[9] = wild type E. coli NCM3722, growth: N-lim chemostat, doubling time 6 h
[10] = wild type E. coli NCM3722, growth: N-lim chemostat, doubling time 12 h
[11] = wild type E. coli NCM3722, growth: P-lim chemostat, doubling time 6 h
[12] = wild type E. coli NCM3722, growth: P-lim chemostat, doubling time 12 h

Sequence	total protein half-life in vivo [1]	total protein half-life in vivo [2]	total protein half-life in vivo [3]	total protein half-life in vivo [4]	total protein half-life in vivo [5]	total protein half-life in vivo [6]	total protein half-life in vivo [7]	total protein half-life in vivo [8]	total protein half-life in vivo [9]	total protein half-life in vivo [10]	total protein half-life in vivo [11]	total protein half-life in vivo [12]
MAGLPNSSNALQQWHHLFEAEGTKRSPQAQQHLQQLLRTGLPTRKHENWKYTPLEGLINSQFVSIAGEISPQQRDALALTLDSVRLVFVDGRYVPALSDATEGSGYEVSINDDRQGLPDAIQAEVFLHLTESLAQSVTHIAVKRGQRPAKPLLLMHITQGVAGEEVNTAHYRHHLDLAEGAEATVIEHFVSLNDARHFTGARFTINVAANAHLQHIKLAFENPLSHHFAHNDLLLAEDATAFSHSFLLGGAVLRHNTSTQLNGENSTLRINSLAMPVKNEVCDTRTWLEHNKGFCNSRQLHKTIVSDKGRAVFNGLINVAQHAIKTDGQMTNNNLLMGKLAEVDTKPQLEIYADDVKCSHGATVGRIDDEQIFYLRSRGINQQDAQQMIIYAFAAELTEALRDEGLKQQVLARIGQRLPGGAR	4.76 ± 0.4 h	3.22 ± 0.11 h	2.1 ± 0.063 h	3.45 ± 1.1 h	1.99 ± 0.24 h	2.2 ± 0.22 h	3.91 ± 0.52 h	5.81 ± 0.08 h	2.37 ± 0.38 h	2.817 ± 0.0043 h	3.2 ± 0.23 h	6.04 ± 0.41 h
MAGNVQEKQLRWYNIALMSFITVWGFGNVVNNYANQGLVVVFSWVFIFALYFTPYALIVGQLGSTFKDGKGGVSTWIKHTMGPGLAYLAAWTYWVVHIPYLAQKPQAILIALGWAMKGDGSLIKEYSVVALQGLTLVLFIFFMWVASRGMKSLKIVGSVAGIAMFVMSLLYVAMAVTAPAITEVHIATTNITWETFIPHIDFTYITTISMLVFAVGGAEKISPYVNQTRNPGKEFPKGMLCLAVMVAVCAILGSLAMGMMFDSRNIPDDLMTNGQYYAFQKLGEYYNMGNTLMVIYAIANTLGQVAALVFSIDAPLKVLLGDADSKYIPASLCRTNASGTPVNGYFLTLVLVAILIMLPTLGIGDMNNLYKWLLNLNSVVMPLRYLWVFVAFIAVVRLAQKYKPEYVFIRNKPLAMTVGIWCFAFTAFACLTGIFPKMEAFTAEWTFQLALNVATPFVLVGLGLIFPLLARKANSK	–	–	–	–	–	–	6.93 h	–	–	–	–	–
MAHIVTLNTPSREDWLTQLADVVTDPDELLRLLNIDAEEKLLAGRSAKKLFALRVPRSFIDRMEKGNPDDPLLRQVLTSQDEFVIAPGFSTDPLEEQHSVVPGLLHKYHNRALLLVKGGCAVNCRYCFRRHFPYAENQGNKRNWQTALEYVAAHPELDEMIFSGGDPLMAKDHELDWLLTQLEAIPHIKRLRIHSRLPIVIPARITEALVECFARSTLQILLVNHINHANEVDETFRQAMAKLRRVGVTLLNQSVLLRDVNDNAQTLANLSNALFDAGVMPYYLHVLDKVQGAAHFMVSDDEARQIMRELLTLVSGYLVPKLAREIGGEPSKTPLDLQLRQQ	5.05 ± 0.77 h	2.63 ± 0.045 h	1.02 ± 0.14 h	1.61 ± 0.14 h	1.33 h	1.41 ± 0.071 h	1.57 ± 0.15 h	3.35 ± 1.6 h	1.58 ± 0.58 h	2.05 h	1.51 ± 0.33 h	2.71 ± 0.88 h
MAIDENKQKALAAALGQIEKQFGKGSIMRLGEDRSMDVETISTGSLSLDIALGAGGLPMGRIVEIYGPESSGKTTLTLQVIAAAQREGKTCAFIDAEHALDPIYARKLGVDIDNLLCSQPDTGEQALEICDALARSGAVDVIVVDSVAALTPKAEIEGEIGDSHMGLAARMMSQAMRKLAGNLKQSNTLLIFINQIRMKIGVMFGNPETTTGGNALKFYASVRLDIRRIGAVKEGENVVGSETRVKVVKNKIAAPFKQAEFQILYGEGINFYGELVDLGVKEKLIEKAGAWYSYKGEKIGQGKANATAWLKDNPETAKEIEKKVRELLLSNPNSTPDFSVDDSEGVAETNEDF [P0A7G6]	6.6 ± 1 h	5.85 ± 0.55 h	3.37 ± 0.057 h	3.272 ± 0.025 h	3.32 ± 0.036 h	2.86 ± 0.031 h	4.82 ± 0.084 h	11.7 ± 4.1 h	3.4281 ± 0.0021 h	4.94 ± 0.44 h	4.77 ± 0.2 h	9.63 ± 0.48 h
MAIEIKVPDIGADEVEITEILVKVGDKVEAEQSLITVEGDKASMEVPSPQAGIVKEIKVSVGDKTQTGALIMIFDSADGAADAAPAQAEEKKEAAPAAAPAAAAAKDVNVPDIGSDEVEVTEILVKVGDKVEAEQSLITVEGDKASMEVPAPFAGTVKEIKVNVGDKVSTGSLIMVFEVAGEAGAAAPAAKQEAAPAAAPAPAAGVKEVNVPDIGGDEVEVTEVMVKVGDKVAAEQSLITVEGDKASMEVPAPFAGVVKELKVNVGDKVKTGSLIMIFEVEGAAPAAAPAKQEAAAPAPAAKAEAPAAAPAAKAEGKSEFAENDAYVHATPLIRRLAREFGVNLAKVKGTGRKGRILREDVQAYVKEAIKRAEAAPAATGGGIPGMLPWPKVDFSKFGEIEEVELGRIQKISGANLSRNWVMIPHVTHFDKTDITELEAFRKQQNEEAAKRKLDVKITPVVFIMKAVAAALEQMPRFNSSLSEDGQRLTLKKYINIGVAVDTPNGLVVPVFKDVNKKGIIELSRELMTISKKARDGKLTAGEMQGGCFTISSIGGLGTTHFAPIVNAPEVAILGVSKSAMEPVWNGKEFVPRLMLPISLSFDHRVIDGADGARFITIINNTLSDIRRLVM	6.49 ± 0.23 h	6.08 ± 0.4 h	6.48 ± 0.081 h	6.36 ± 0.067 h	5.78 ± 0.37 h	3.08 ± 0.092 h	5.778 ± 0.018 h	10.6 ± 0.66 h	6.19 ± 0.27 h	12.3 ± 0.84 h	6.07 ± 0.26 h	12.5 ± 0.53 h
MAIILGIDPGSRVTGYGVIRQVGRQLSYLGSGCIRTKVDDLPSRLKLIYAGVTEIITQFQPDYFAIEQVFMAKNADSALKLGQARGVAIVAAVNQELPVFEYAARQVKQTVVGIGSAEKSQVQHMVRTLLKLPANPQADAADALAIAITHCHVSQNAMQMSESRLNLARGRLR [P0A814]	4.93 ± 0.29 h	3.57 ± 0.066 h	3.29 ± 0.05 h	3.46 ± 0.7 h	4.18 ± 1.7 h	2.26 ± 0.1 h	4.34 ± 0.17 h	6.6 ± 0.2 h	3.56 ± 0.17 h	5.21 ± 0.39 h	–	6.3836 ± 0.0059 h
MAILGLGTDIVEIARIEAVIARSGDRLARRVLSDNEWAIWKTHHQPVRFLAKRFAVKEAAAKAFGTGIRNGLAFNQFEVFNDELGKPRLRLWGEALKLAEKLGVANMHVTLADERHYACATVIIES	5.28 ± 0.087 h	–	–	5.71 ± 0.46 h	5.093 ± 0.018 h	2.85 ± 0.081 h	5.87 ± 0.26 h	12.9 ± 2.6 h	5.35 ± 0.61 h	11.2 ± 1.1 h	5.72 ± 0.41 h	11.5 ± 0.7 h
